Measured values from patent US20170101476A1 (Novartis, published 2017).
Read-outs that look alike come from different tables or passages of the source.

T1: Human CXCR2 (human, UniProt P25025 1-360)
T1 sequence: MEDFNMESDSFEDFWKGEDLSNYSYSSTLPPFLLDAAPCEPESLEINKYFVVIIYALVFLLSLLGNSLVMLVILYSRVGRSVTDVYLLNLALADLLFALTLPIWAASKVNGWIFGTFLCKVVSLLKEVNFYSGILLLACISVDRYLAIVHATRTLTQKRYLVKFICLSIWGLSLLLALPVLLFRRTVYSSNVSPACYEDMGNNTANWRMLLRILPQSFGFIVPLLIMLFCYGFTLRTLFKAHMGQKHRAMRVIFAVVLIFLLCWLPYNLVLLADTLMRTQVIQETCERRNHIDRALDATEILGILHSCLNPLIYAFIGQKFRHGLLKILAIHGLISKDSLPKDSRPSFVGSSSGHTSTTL

T2: Cynomolgus CXCR2 (cynomolgus, UniProt Q28519 3-353 (rhesus entry))
T2 chain: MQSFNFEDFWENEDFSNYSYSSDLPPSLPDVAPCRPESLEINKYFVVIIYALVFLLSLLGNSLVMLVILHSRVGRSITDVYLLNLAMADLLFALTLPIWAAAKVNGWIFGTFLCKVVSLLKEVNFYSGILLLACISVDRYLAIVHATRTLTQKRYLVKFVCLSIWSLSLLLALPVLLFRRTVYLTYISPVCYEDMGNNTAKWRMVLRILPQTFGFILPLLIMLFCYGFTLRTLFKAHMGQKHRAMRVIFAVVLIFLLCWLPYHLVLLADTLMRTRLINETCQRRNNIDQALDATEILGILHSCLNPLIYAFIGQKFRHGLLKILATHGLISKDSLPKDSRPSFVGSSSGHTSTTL


Tests used:
Assay in all cases: cell-based or functional assay
Human CXCR2 [1] = target: T1, Human CXCR2
Human CXCR2 [2] = target: T1, Human CXCR2; remark: listed apart in the source
Cynomolgus CXCR2 [3] = target: T2, Cynomolgus CXCR2
Human CXCR2 [4] = target: T1, Human CXCR2; remark: listed apart in the source
Cynomolgus CXCR2 [5] = target: T2, Cynomolgus CXCR2
Human CXCR2 [6] = target: T1, Human CXCR2; remark: listed apart in the source
Human CXCR2 [7] = target: T1, Human CXCR2; remark: listed apart in the source
Cynomolgus CXCR2 [8] = target: T2, Cynomolgus CXCR2

| Binder | FLIPR IC50, GRO-α induced intracellular calcium release (Human CXCR2 [1]) | [35S]GTPγS % inhibition of max, GRO-α (Human CXCR2 [2]) | [35S]GTPγS accumulation IC50, GRO-α (Human CXCR2 [2]) | FLIPR IC50, GRO-α induced intracellular calcium release (Cynomolgus CXCR2 [3]) | FLIPR IC50, GRO-α induced intracellular calcium release (Human CXCR2 [4]) | Cynomologus WBSC IC50 (vs rhGROα) (Cynomolgus CXCR2 [5]) | Human Chemotaxis IC50 (vs rhGROα) (Human CXCR2 [6]) | Human WBSC IC50 (vs rhGROα) (Human CXCR2 [6]) | [35S]GTPγS % inhibition of max, ENA-78 (Human CXCR2 [2]) | [35S]GTPγS % inhibition of max, IL-8 (Human CXCR2 [2]) | [35S]GTPγS accumulation IC50, ENA-78 (Human CXCR2 [2]) | [35S]GTPγS accumulation IC50, IL-8 (Human CXCR2 [2]) | Human Chemotaxis IC50 (GROα) (Human CXCR2 [7]) | HumanWBSC IC50 (rhGROα) (Human CXCR2 [7]) | FLIPR IC50, GRO-α induced intracellular calcium release (Cynomolgus CXCR2 [8]) | [35S]GTPγS % inhibition max, GRO-α (Human CXCR2 [1]) | [35S]GTPγS accumulation IC50, GRO-α (Human CXCR2 [1]) |
| --- | --- | --- | --- | --- | --- | --- | --- | --- | --- | --- | --- | --- | --- | --- | --- | --- | --- |
| CXCR20033 (bispecific antibody, not shown: small tags and cut ends) EVQLVESGGGLVQPGGSLRLSCVASGRIFSSNAMGWFRQAPGKEREFVAAITWRSGGSAYYADSAKGRFTISRDNAKNTVYLQMNSLKPEDTAVYYCAAGGSSWLSFPPDYWGQGTQVTVSSGGGGSGGGGSGGGGSGGGGSGGGGSGGGGSGGGGSEVQLVESGGELVQPGGSLRLSCAASGSILTINAMGWYRQAPGKQRELVVRRTRGGSTTYQDSVKGRFTISADIAKKTMYLQMNSLKPEDTAVYYCMLDDRGGVYWGQGTQVTVSS | – | 100% | 1.01 nM | 4.46 nM | 17.9 nM | 0.42 nM | 0.145 nM | 0.345 nM | – | – | – | – | – | – | – | – | – |
| CXCR20035 (other, not shown: small tags and cut ends) EVQLVESGGGLVQAGGSLTLSCAVSGSTFRINTMGWYRRAPGKQRELVAARDRGGYINYVDSVKGRFTVSRDNAKPTMYLQMNSLKPEDTAVYYCHAGTQDRTGRNFDRWGQGTQVTVSSGGGGSGGGGSGGGGSGGGGSGGGGSGGGGSGGGGSEVQLVESGGGLVQPGGSLRLSCVASGRIFSSNAMGWFRQAPGKEREFVAAITWRSGGSAYYADSAKGRFTISRDNAKNTVYLQMNSLKPEDTAVYYCAAGGSSWLSFPPDYWGQGTQVTVSS | – | 100% | 0.844 nM | 8.72 nM | 10.2 nM | 0.43 nM | – | 0.24 nM | 100% | 100% | 1.17 nM | 0.717 nM | – | – | – | – | – |
| CXCR20034 (bispecific antibody, not shown: small tags and cut ends) EVQLVESGGGLVQAGGSLRLSCAASGRTFSDYAMGWFRQAPGKEREFVAAITWNGGRVFYTASVKGRFTISRDNAKNTMYLQMNSLKPEDTAVYYCAADKDRRTDYLGHPVAYWGQGTQVTVSSGGGGSGGGGSGGGGSGGGGSGGGGSGGGGSGGGGSEVQLVESGGELVQPGGSLRLSCAASGSILTINAMGWYRQAPGKQRELVVRRTRGGSTTYQDSVKGRFTISADIAKKTMYLQMNSLKPEDTAVYYCMLDDRGGVYWGQGTQVTVSS | – | 100% | 0.995 nM | 9.47 nM | 11.8 nM | 0.44 nM | 0.145 nM | 0.29 nM | – | – | – | – | – | – | – | – | – |
| 127D01 (VHH, not shown: small tags and cut ends) VHH: EVQLVESGGGLVQAGESLRLSCAASGSTFDFKVMGWYRQPPGKQREGVAAIRLSGNMHYAESVKGRFTISKANAKNTVYLQMNSLRPEDTAVYYCKVNIRGQDYWGQGTQVTVSS | 21.9 nM | – | – | – | – | – | – | – | – | – | – | – | 3.9 nM | 4.9 nM | 753 nM | 66% | 12.5 nM |
| CXCR20028 (other, not shown: small tags and cut ends) EVQLVESGGGLVQPGGSLRLSCVASGSIVRINTMGWYRQTPGKQRELVADITSGGNINYIDAVKGRFTISRDNTKNTVYLQMNSLKPEDTAVYYCNAEIVVLVGVWTQRARTGNYWGQGTQVTVSSGGGGSGGGGSGGGGSGGGGSGGGGSGGGGSGGGGSEVQLVESGGGLVQAGGSLTLSCAVSGSTFRINTMGWYRRAPGKQRELVAARDRGGYINYVDSVKGRFTVSRDNAKPTMYLQMNSLKPEDTAVYYCHAGTQDRTGRNFDRWGQGTQVTVSS | – | 100% | 1.38 nM | 17 nM | 21.9 nM | 1.72 nM | – | 0.43 nM | – | – | – | – | – | – | – | – | – |

More lines, now with the values ahead:

| FLIPR IC50, GRO-α induced intracellular calcium release (Human CXCR2 [1]) | [35S]GTPγS % inhibition of max, GRO-α (Human CXCR2 [2]) | [35S]GTPγS accumulation IC50, GRO-α (Human CXCR2 [2]) | FLIPR IC50, GRO-α induced intracellular calcium release (Cynomolgus CXCR2 [3]) | FLIPR IC50, GRO-α induced intracellular calcium release (Human CXCR2 [4]) | Cynomologus WBSC IC50 (vs rhGROα) (Cynomolgus CXCR2 [5]) | Human Chemotaxis IC50 (vs rhGROα) (Human CXCR2 [6]) | Human WBSC IC50 (vs rhGROα) (Human CXCR2 [6]) | [35S]GTPγS % inhibition of max, ENA-78 (Human CXCR2 [2]) | [35S]GTPγS % inhibition of max, IL-8 (Human CXCR2 [2]) | [35S]GTPγS accumulation IC50, ENA-78 (Human CXCR2 [2]) | [35S]GTPγS accumulation IC50, IL-8 (Human CXCR2 [2]) | Human Chemotaxis IC50 (GROα) (Human CXCR2 [7]) | HumanWBSC IC50 (rhGROα) (Human CXCR2 [7]) | FLIPR IC50, GRO-α induced intracellular calcium release (Cynomolgus CXCR2 [8]) | [35S]GTPγS % inhibition max, GRO-α (Human CXCR2 [1]) | [35S]GTPγS accumulation IC50, GRO-α (Human CXCR2 [1]) | Binder |
| --- | --- | --- | --- | --- | --- | --- | --- | --- | --- | --- | --- | --- | --- | --- | --- | --- | --- |
| 6.71 nM | – | – | – | – | – | – | – | – | – | – | – | – | – | – | – | – | 137B07 (VHH, not shown: small tags and cut ends) VHH: EVQLVESGGGLVQPGGSVRLSCVASGIIFRLSALGWTRQGPGKAREWVAGINSDGTTNYADPVKGRFTISRDNAKNTIYLHMDMLKPEDTAVYYCASGKYRGQGTQVTVSS |
| – | 100% | 26.6 nM | 12 nM | 14.8 nM | – | – | – | – | – | – | – | – | – | – | – | – | CXCR20023 (bispecific antibody, not shown: small tags and cut ends) EVQLVESGGGLVQAGGSLRLSCAASGRTFSDYAMGWFRQAPGKEREFVAAITWNGGRVFYTASVKGRFTISRDNAKNTMYLQMNSLKPEDTAVYYCAADKDRRTDYLGHPVAYWGQGTQVTVSSGGGGSGGGGSGGGGSGGGGSGGGGSGGGGSGGGGSEVQLVESGGGLVQPGGSLRLSCVASGRIFSSNAMGWFRQAPGKEREFVAAITWRSGGSAYYADSAKGRFTISRDNAKNTVYLQMNSLKPEDTAVYYCAAGGSSWLSFPPDYWGQGTQVTVSS |
| – | 100% | 0.634 nM | 1.64 nM | 6.98 nM | 0.12 nM | 0.145 nM | 0.17 nM | 100% | 100% | 0.707 nM | 0.619 nM | – | – | – | – | – | CXCR20020 (bispecific antibody, not shown: small tags and cut ends) EVQLVESGGGLVQAGESLRLSCAASGSTFDFKVMGWYRQPPGKQREGVAAIRLSGNMHYAESVKGRFTISKANAKNTVYLQMNSLRPEDTAVYYCKVNIRGQDYWGQGTQVTVSSGGGGSGGGGSGGGGSGGGGSGGGGSGGGGSGGGGSEVQLVESGGGLVQAGGSLRLSCAASGRTFSDYAMGWFRQAPGKEREFVAAITWNGGRVFYTASVKGRFTISRDNAKNTMYLQMNSLKPEDTAVYYCAADKDRRTDYLGHPVAYWGQGTQVTVSS |
| – | 100% | 1.38 nM | 13.7 nM | 6.84 nM | 0.16 nM | 0.16 nM | 0.445 nM | 100% | 100% | 1.66 nM | 1.13 nM | – | – | – | – | – | CXCR20014 (bispecific antibody, not shown: small tags and cut ends) EVQLVESGGGLVQPGGSLRLSCVASGSIVRINTMGWYRQTPGKQRELVADITSGGNINYIDAVKGRFTISRDNTKNTVYLQMNSLKPEDTAVYYCNAEIVVLVGVWTQRARTGNYWGQGTQVTVSSGGGGSGGGGSGGGGSGGGGSGGGGSGGGGSGGGGSEVQLVESGGELVQPGGSLRLSCAASGSILTINAMGWYRQAPGKQRELVVRRTRGGSTTYQDSVKGRFTISADIAKKTMYLQMNSLKPEDTAVYYCMLDDRGGVYWGQGTQVTVSS |
| – | 100% | 1.02 nM | 6.36 nM | 11.8 nM | 0.56 nM | – | 0.215 nM | 100% | 100% | 1.3 nM | 1.09 nM | – | – | – | – | – | CXCR20030 (other, not shown: small tags and cut ends) EVQLVESGGGLVQAGGSLRLSCAASGRTFSDYAMGWFRQAPGKEREFVAAITWNGGRVFYTASVKGRFTISRDNAKNTMYLQMNSLKPEDTAVYYCAADKDRRTDYLGHPVAYWGQGTQVTVSSGGGGSGGGGSGGGGSGGGGSGGGGSGGGGSGGGGSEVQLVESGGGLVQAGGSLTLSCAVSGSTFRINTMGWYRRAPGKQRELVAARDRGGYINYVDSVKGRFTVSRDNAKPTMYLQMNSLKPEDTAVYYCHAGTQDRTGRNFDRWGQGTQVTVSS |
| – | 100% | 0.809 nM | 9.1 nM | 12.3 nM | 0.26 nM | 0.14 nM | 0.165 nM | – | – | – | – | – | – | – | – | – | CXCR20026 (bispecific antibody, not shown: small tags and cut ends) EVQLVESGGGLVQPGGSLRLSCVASGRIFSSNAMGWFRQAPGKEREFVAAITWRSGGSAYYADSAKGRFTISRDNAKNTVYLQMNSLKPEDTAVYYCAAGGSSWLSFPPDYWGQGTQVTVSSGGGGSGGGGSGGGGSGGGGSGGGGSGGGGSGGGGSEVQLVESGGGLVQAGESLRLSCAASGSTFDFKVMGWYRQPPGKQREGVAAIRLSGNMHYAESVKGRFTISKANAKNTVYLQMNSLRPEDTAVYYCKVNIRGQDYWGQGTQVTVSS |
